The text below walks through data of patent US7341836B2, “Modified cyclic nucleotide gated ion channels” (The Regents of the University of Colorado, priority 2001, dated 2008).

As usually defined, the IC50 is the concentration that gives 50% inhibition.

Experiment [1] relates to HEK-293 cells expressing CNG channels. Briefly: Forskolin-induced cAMP accumulation monitored by Ca2+ influx (fura-2) through expressed CNG channels. The class given is cell-based, human. The procedure: Next, experiments were conducted to assess the ability of each channel construct to detect increases in local cAMP concentration. Changes in cAMP concentration were detected using fura-2 to monitor Ca^2+ influx through CNG channels, as described in the Examples. Ca^2+ influx induced by different concentrations of forskolin, an AC activator, in the presence of 100 μM IBMX, a nonselective PDE inhibitor was measured. This approach allowed comparisons to be made between the cAMP sensitivities of the different channels to changes in cAMP, regardless of variations in expression levels between experiments. In HEK-293 cells expressing the WT channel, addition of forskolin was followed by a brief delay and an increase in Ca^2+ influx (See, FIG. 7, Panel A). The delay decreased and the rate of Ca^2+ influx increased in a dose-dependent manner. Neither effect was saturated at 50 μM forskolin. In cells expressing the E583M channel, addition of forskolin was also followed by a brief delay and an increase in Ca^2+ influx (FIG. 7, Panel B). As with the WT channel, the delay and the initial rate of Ca^2+ influx were dose-dependent. […] In cells expressing the Δ61-90/C460W/E583M channel, addition of forskolin caused similar increases in Ca^2+ influx as the E583M channel, including saturation of the delay and rate of influx at 20 μM (compare FIG. 7, Panel B with FIG. 7, Panel D). The increased response of the modified channels to forskolin treatment is consistent with the apparent cAMP affinities measured in excised patches in the absence of Ca^2+-CaM (C460W/E583M>E583M˜Δ61-90/C460W/E583>WT channels). There are several factors that may have contributed to the apparent lack of a Ca^2+-CaM effect on the channels.
Briefly, HEK-293 were maintained in MEM (Life Technologies Inc.) supplemented with 26.2 mM NaHCO3, 10% (v/v) fetal bovine serum (Gemini), penicillin (50 μg/mL), and streptomycin ([…]), pH 7.0, at 37° C. in a humidified atmosphere of 95% air and 5% CO2. Cells were plated at ˜60% confluence in 100 mm culture dishes twenty-four hours prior to infection with the CNG-channel-encoding adenovirus constructs (multiplicity of infection=10 plaque forming units per cell). […] Twenty-four hours post-infection cells were detached with phosphate-buffered saline containing 0.03% EDTA, resuspended in serum-containing medium, and assayed within 12 hours.
On the technique in general: cAMP levels reflect the balance of adenylyl cyclase and phosphodiesterase activity.

The subject of experiment [2] is PDE activity in GH4C1 cells. The experiment is described as follows: Effect of PDE inhibitors, forskolin and VIP on cAMP levels (Ca2+ influx through CNG channels). The class given is cell-based, rat. The conditions noted are these: C460W/E583M channels. The procedure:
To further test the utility of this approach, PDE activity in excitable GH4C1 pituitary cells was examined. In all of the experiments shown (See, FIGS. 13-14, and Table 2), 1 μM nimodipine was added at time zero to block Ca^2+ influx though voltage-gated Ca^2+ channels (triggered by membrane depolarization due to Ca^2+ and Na^+ influx through CNG channels). […] FIGS. 13 and 14 each depict experiments done on a single batch of cells. As before, similar results were obtained on three other batches. In the experiments that produced the data shown in Table 2, cAMP concentrations were monitored using Ca^2+ influx through C460W/E583M channels. […] Either 100 μM IBMX or vehicle (-IBMX; control) were added at time zero. Then, 50 μM forskolin were added at 180 seconds d(ΔF/F0)/dt, which is proportional to the Ca^2+ influx rate, was estimated as described in the Examples. Data are provided as mean±standard error. IBMX or vehicle was added at 60 seconds (first arrow in FIG. 13). Either 10 μM forskolin or 100 nM VIP were added at 240 seconds (second arrow in FIG. 13). In the absence of IBMX, large forskolin or VIP-induced increases in Ca^2+ influx were observed. […] This level of basal AC activity was quite different from that observed in HEK-293 cells (See, FIGS. 9 and 10). 1 μM nimodipine was added at time 0 to block endogenous voltage-gated Ca^2+ channels.
To identify the PDE family or families that regulate the local cAMP concentration in GH4C1 cells, cAMP accumulation was monitored in the presence and absence of PDE inhibitors (See, Table 2). Again, the high cAMP affinity C460W/E583M channels were used. PDE inhibitors were added at 60 s. Although the addition of IBMX alone triggered Ca^2+ influx, 10 μM forskolin were added at 240 s as a positive control for CNG channel activity. […] This PDE is likely to have a low Km for cAMP because it is capable of regulating cAMP at concentrations too low for the WT or Δ61-90/C460W/E583M channels to detect. Thus, it is contemplated that a Ca^2+-CaM stimulated PDE (type I) is primarily responsible for controlling basal cAMP signals in GH4C1 cells.
In addition, PDE activity was monitored using Δ61-90/C460W/E583M channels to detect changes in cAMP concentration (See, FIG. 14). PDE inhibitors and forskolin were added as described above. With this construct, it was not possible to observe changes in cAMP concentration due to inhibition of PDE activity alone. […] Inhibitors specific to other PDE types had no effect on the forskolin-induced Ca^2+ influx (data not shown). […] It is contemplated that Ca^2+ influx through the C460W/E583M channels was saturated at cAMP concentrations below the Km for this PDE. Thus, it is contemplated that there are two different PDE types that regulate local cAMP signals in GH4C1 cells: a low Km, 8-methoxymethyl-IBMX sensitive PDE (type I); and a high Km, RO-20-1724-, rolipram-sensitive PDE (type IV).
GH4C1 rat pituitary cells (ATCC) were maintained in 13 mL Ham's F-10 medium (Life Technologies) supplemented with 14.3 mM NaHCO3, 15% donor horse serum (Gemini), and 2.5% fetal bovine serum, pH 6.8, in 75 cm^2 flasks at 37° C. in a humidified atmosphere of 95% air and 5% CO2. Cells were split weekly (1:4) and washed with fresh medium twice weekly. Cells were plated at ˜60% confluence in 100 mm culture dishes twenty-four hours prior to infection with the CNG-channel-encoding adenovirus constructs (multiplicity of infection=50 plaque forming units per cell). Forty-eight hours post-infection cells were detached, resuspended in serum-containing medium, and assayed within 12 hours.
In this Example, experiments conducted to examine the response of excitable GH4C1 pituitary cells to stimulation by either forskolin or the hormone vasoactive intestinal peptide (VIP), in the presence of absence of PDE inhibitors are described. […]

A further experiment concerns PDE III. The conditions noted are these: cited from earlier work.
Experiment [3] has as its system rat olfactory CNG channel α subunit. The experiment is described as follows: Excised inside-out patch recordings, cyclic nucleotide dose-response of CNG channel constructs. The conditions noted are these: for Imax^cGMP/Imax^cAMP: current at saturating cGMP divided by current at saturating cAMP. The experiment is classed as biochemical. The method, then:
As described in greater detail herein, the effects of modifications to CNG channels were assessed using the Hill equation, I/Imax=[cNMP]^N/([cNMP]^N+K1/2^N), where I/Imax is the fraction of maximal current, cNMP represents cyclic nucleotide, K1/2 is the concentration that gives half-maximal current, and N is the Hill coefficient, an index of cooperativity. I/Imax^cGMP/Imax^cAMP is the current induced by saturating cGMP divided by the current induced by saturating cAMP. Data (mean±standard deviation of three experiments) were obtained from excised membrane patches using standard patch clamp techniques.
To assess the cyclic nucleotide sensitivity of different CNG channel constructs, excised, inside-out patch recordings were made at room temperature (20-21° C.) using an Axopatch-200A patch clamp amplifier (Axon Instruments Inc.). Pipettes were pulled from borosilicate glass and heat polished. Pipettes were lowered onto the cells and gigaohm seals were formed. Patches were excised by shearing cells from the pipette with a jet of liquid. Ionic currents were elicited by 250 ms pulses to membrane potentials of +50 and −50 mV from a holding potential of 0 mV. Current records were sampled at five times the filter setting and stored on an IBM compatible computer. Records were corrected for errors due to series resistance (pipette resistance was 4.1 ±0.1 MΩ). Both the pipette and bath solutions contained (mM): 130 NaCl, 2 HEPES, 0.02 EDTA, and 1 EGTA, pH 7.6. Cyclic nucleotide-induced currents were obtained from the difference between currents in the presence and absence of cyclic nucleotides. Dose response curves for cAMP and cGMP were obtained at +50 and −50 mV in the same patch. The effects of the modifications were assessed using the Hill equation, I/Imax=[cNMP]^N/([cNMP]^N+K1/2^N), where I/Imax is the fraction of maximal current, cNMP represents cyclic nucleotide, K1/2 is the concentration that gives half-maximal current, and N is the Hill coefficient, an index of cooperativity. K1/2 and N for cAMP were 36±5 μM, 10±2 μM, 1.0±0.3 μM, and […] for WT, E583M, C460/E583M, and Δ61-90/C460W/E583M channels, respectively (See, Rich et al., J. Gen. Physiol. [2001], supra).
The cyclic nucleotide sensitivity of the C460W/E583M CNG channel was assessed in excised, inside-out patches as known in the art (See, Rich et al. [2001], supra). K1/2 and N were 1.1±0.3 μM and 2.1±0.4 at +50 mV; and 1.0±0.3 μM and 2.0 ±0.3 at −50 mV (n=11). With these values, the cAMP concentration could be calculated from currents measured in perforated patch experiments (Rich et al. Proc. Natl. Acad. Sci. [2001], supra).

As to `C=C[C@@]1(C)CC(=O)[C@]2(O)[C@@]3(C)[C@@H](O)CCC(C)(C)[C@@H]3[C@H](O)[C@H](OC(C)=O)[C@@]2(C)O1` [forskolin], the “forskolin-induced increase in cAMP concentration averaged throughout the accessible cell volume” value in experiment [1] fell in the range of 1 to 2 µM. Besides, the “forskolin-induced increase in cAMP concentration measured using CNG channels” value in experiment [1] (local, near plasma membrane) is greater than 25 µM.

Turning to vasoactive intestinal peptide [VIP], in experiment [2] (10 μM forskolin or 100 nM VIP after IBMX or vehicle), the “cAMP accumulation and Ca2+ influx after AC stimulation” value was “caused additional cAMP accumulation and Ca^2+ influx”.

On to `C[C@@H]1C(=O)NC2=Nc3cccc(Cl)c3CN21` [Quazinone], for which the “d(ΔF/F0)/dt” value in experiment [2] (basal cAMP, inhibitor concentration (μM)) was 0 s⁻¹. For the same molecule, the IC50 in the experiment with PDE III is 600 nM.

B1: E583M: modified rat olfactory cyclic nucleotide-gated ion channel containing the E583M mutation, SEQ ID NO:5 (protein, listed as Rattus norvegicus)
chain: MMTEKSNGVKSSPANNHNHHPPPSIKANGKDDHRAGSRPQSVAADDDTSPELQRLAEMDTPRRGRGGFQRIVRLVGVIRDWANKNFREEEPRPDSFLERFRGPELQTVTTHQGDDKGGKDGEGKGTKKKFELFVLDPAGDWYYRWLFVIAMPVLYNWCLLVARACFSDLQRNYFVVWLVLDYFSDTVYIADLIIRLRTGFLEQGLLVKDPKKLRDNYIHTLQFKLDVASIIPTDLIYFAVGIHSPEVRFNRLLHFARMFEFFDRTETRTSYPNIFRISNLVLYILVIIHWNACIYYVISKSIGFGVDTWVYPNITDPEYGYLAREYIYCLYWSTLTLTTIGETPPPVKDEEYLFVIFDFLIGVLIFATIVGNVGSMISNMNATRAEFQAKIDAVKHYMQFRKVSKDMEAKVIKWFDYLWTNKKTVDEREVLKNLPAKLRAEIAINVHLSTLKKVRIFQDCEAGLLVELVLKLRPQVFSPGDYICRKGDIGKEMYIIKEGKLAVVADDGVTQYALLSAGSCFGEISILNIKGSKMGNRRTANIRSLGYSDLFCLSKDDLMEAVTEYPDAKKVLEERGREILMKMGLLDENEVAASMEVDVQEKLEQLETNMDTLYTRFARLLAEYTGAQQKLKQRITVLETKMKQNHEDDYLSDGINTPEPTAAE
B1: the “Imax^cGMP/Imax^cAMP” value is 0.40 ± 0.10 in experiment [3] (+50 mV) and 0.35 ± 0.16 in experiment [3] (−50 mV). Besides, the “current elicited by saturating cGMP as % of the current elicited by saturating cAMP” value in experiment [3] (excised patches) is roughly 40%. In addition, in experiment [1] (100 μM IBMX, forskolin 0-50 μM), the “forskolin concentration at which delay and rate of Ca2+ influx saturated” value was 20 µM.

B2: WT: wild-type rat olfactory cyclic nucleotide gated channel α subunit, amino acid sequence SEQ ID NO:8 (protein, listed as Rattus norvegicus)
chain: MMTEKSNGVKSSPANNHNHHPPPSIKANGKDDHRAGSRPQSVAADDDTSPELQRLAEMDTPRRGRGGFQRIVRLVGVIRDWANKNFREEEPRPDSFLERFRGPELQTVTTHQGDDKGGKDGEGKGTKKKFELFVLDPAGDWYYRWLFVIAMPVLYNWCLLVARACFSDLQRNYFVVWLVLDYFSDTVYIADLIIRLRTGFLEQGLLVKDPKKLRDNYIHTLQFKLDVASIIPTDLIYFAVGIHSPEVRFNRLLHFARMFEFFDRTETRTSYPNIFRISNLVLYILVIIHWNACIYYVISKSIGFGVDTWVYPNITDPEYGYLAREYIYCLYWSTLTLTTIGETPPPVKDEEYLFVIFDFLIGVLIFATIVGNVGSMISNMNATRAEFQAKIDAVKHYMQFRKVSKDMEAKVIKWFDYLWTNKKTVDEREVLKNLPAKLRAEIAINVHLSTLKKVRIFQDCEAGLLVELVLKLRPQVFSPGDYICRKGDIGKEMYIIKEGKLAVVADDGVTQYALLSAGSCFGEISILNIKGSKMGNRRTANIRSLGYSDLFCLSKDDLMEAVTEYPDAKKVLEERGREILMKEGLLDENEVAASMEVDVQEKLEQLETNMDTLYTRFARLLAEYTGAQQKLKQRITVLETKMKQNHEDDYLSDGINTPEPTAAE
On to B2, for which the “Imax^cGMP/Imax^cAMP” value in experiment [3] (+50 mV) and in experiment [3] (−50 mV) was 1.0 throughout.
